Experimental findings from US20140087995A1 (published 2014) are described below.

Numbered stars: 1 amine (or outer) side, 2 acyl side, 3 side chain; on linkers, the order of the positions; unused ones are H or OH. Bridge positions count the residues as written; N and C are the ends. Side chains are listed from the residue outwards. Ends that are not written are not given here. * marks the point of attachment. C20 diacid = O=C(O)CCCCCCCCCCCCCCCCCCC(=O)*; γGlu = O=C(O)[C@H](CCC(=O)[*:2])N[*:1]; AEEA = NCCOCCOCC(=O)O

The target of the experiment is T1, human calcitonin receptor (human, UniProt P30988 25-474).
T1 construct: whole, on cells; also called hCTR; hCT
T1 sequence (looked up): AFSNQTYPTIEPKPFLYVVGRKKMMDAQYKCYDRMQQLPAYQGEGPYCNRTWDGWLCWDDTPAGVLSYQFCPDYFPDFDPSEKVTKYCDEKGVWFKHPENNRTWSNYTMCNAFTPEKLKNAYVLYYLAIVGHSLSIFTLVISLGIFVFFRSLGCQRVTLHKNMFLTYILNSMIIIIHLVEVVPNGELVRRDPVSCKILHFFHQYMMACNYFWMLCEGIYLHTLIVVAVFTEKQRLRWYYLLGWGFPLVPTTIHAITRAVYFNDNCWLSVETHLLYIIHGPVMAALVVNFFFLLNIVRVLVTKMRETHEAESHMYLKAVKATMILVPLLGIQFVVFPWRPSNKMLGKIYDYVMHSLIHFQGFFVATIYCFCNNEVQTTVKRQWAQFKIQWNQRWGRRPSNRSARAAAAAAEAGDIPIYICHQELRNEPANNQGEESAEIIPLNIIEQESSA
The experiment in a line: SPA competition with 125I-calcitonin, membranes of BHK hCTR cells (Assay VII). In short, it runs like this:
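BHK hCTR membranes 35 ng/μL + SPA beads 0.05 mg/well; buffer 50 mM Hepes pH 7.4, 1 mM CaCl2, 5 mM MgCl₂, 0.1% OA, 0.02% Tween20. 120 min, 25° C., shaking. Scintillation count; IC50 by one-site binding competition.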

B1: N^ε1-[2-[2-[2-[[(4S)-4-carboxy-4-(19-carboxynonadecanoylamino)butanoyl]amino]ethoxy]ethoxy]acetyl]-[His14,Arg17,Pro21,Pro27,Pro34]-h-amylin (peptide)
peptide: K([AEEA-γGlu-C20 diacid])CNTATCATQRLAHFLRHSSPNFGAIPSSTNVGPNTY-NH2
modifications: disulfide 2-7; N-terminus assumed
SMILES: CC[C@H](C)[C@H](NC(=O)[C@H](C)NC(=O)CNC(=O)[C@H](Cc1ccccc1)NC(=O)[C@H](CC(N)=O)NC(=O)[C@@H]1CCCN1C(=O)[C@H](CO)NC(=O)[C@H](CO)NC(=O)[C@H](Cc1c[nH]cn1)NC(=O)[C@H](CCCNC(=N)N)NC(=O)[C@H](CC(C)C)NC(=O)[C@H](Cc1ccccc1)NC(=O)[C@H](Cc1c[nH]cn1)NC(=O)[C@H](C)NC(=O)[C@H](CC(C)C)NC(=O)[C@H](CCCNC(=N)N)NC(=O)[C@H](CCC(N)=O)NC(=O)[C@@H](NC(=O)[C@H](C)NC(=O)[C@@H]1CSSC[C@H](NC(=O)[C@@H](N)CCCCNC(=O)COCCOCCNC(=O)CC[C@H](NC(=O)CCCCCCCCCCCCCCCCCCC(=O)O)C(=O)O)C(=O)N[C@@H](CC(N)=O)C(=O)N[C@@H]([C@@H](C)O)C(=O)N[C@@H](C)C(=O)N[C@@H]([C@@H](C)O)C(=O)N1)[C@@H](C)O)C(=O)N1CCC[C@H]1C(=O)N[C@@H](CO)C(=O)N[C@@H](CO)C(=O)N[C@H](C(=O)N[C@@H](CC(N)=O)C(=O)N[C@H](C(=O)NCC(=O)N1CCC[C@H]1C(=O)N[C@@H](CC(N)=O)C(=O)N[C@H](C(=O)N[C@@H](Cc1ccc(O)cc1)C(N)=O)[C@@H](C)O)C(C)C)[C@@H](C)O
notes: also called compound 68
Take B1: the IC50 was 5.66 nM.

B2: N^ε1-[2-[2-[2-[[(4S)-4-carboxy-4-(19-carboxynonadecanoylamino)butanoyl]amino]ethoxy]ethoxy]acetyl]-[His14,Arg17,Pro21,Pro27]-h-amylin (peptide)
peptide: K([AEEA-γGlu-C20 diacid])CNTATCATQRLAHFLRHSSPNFGAIPSSTNVGSNTY-NH2
modifications: disulfide 2-7; N-terminus assumed
SMILES: CC[C@H](C)[C@H](NC(=O)[C@H](C)NC(=O)CNC(=O)[C@H](Cc1ccccc1)NC(=O)[C@H](CC(N)=O)NC(=O)[C@@H]1CCCN1C(=O)[C@H](CO)NC(=O)[C@H](CO)NC(=O)[C@H](Cc1c[nH]cn1)NC(=O)[C@H](CCCNC(=N)N)NC(=O)[C@H](CC(C)C)NC(=O)[C@H](Cc1ccccc1)NC(=O)[C@H](Cc1c[nH]cn1)NC(=O)[C@H](C)NC(=O)[C@H](CC(C)C)NC(=O)[C@H](CCCNC(=N)N)NC(=O)[C@H](CCC(N)=O)NC(=O)[C@@H](NC(=O)[C@H](C)NC(=O)[C@@H]1CSSC[C@H](NC(=O)[C@@H](N)CCCCNC(=O)COCCOCCNC(=O)CC[C@H](NC(=O)CCCCCCCCCCCCCCCCCCC(=O)O)C(=O)O)C(=O)N[C@@H](CC(N)=O)C(=O)N[C@@H]([C@@H](C)O)C(=O)N[C@@H](C)C(=O)N[C@@H]([C@@H](C)O)C(=O)N1)[C@@H](C)O)C(=O)N1CCC[C@H]1C(=O)N[C@@H](CO)C(=O)N[C@@H](CO)C(=O)N[C@H](C(=O)N[C@@H](CC(N)=O)C(=O)N[C@H](C(=O)NCC(=O)N[C@@H](CO)C(=O)N[C@@H](CC(N)=O)C(=O)N[C@H](C(=O)N[C@@H](Cc1ccc(O)cc1)C(N)=O)[C@@H](C)O)C(C)C)[C@@H](C)O
notes: also called compound 69
On to B2, for which the IC50 came to 8.68 nM.

B3: N^ε1-[(4S)-4-carboxy-4-(19-carboxynonadecanoylamino)butanoyl]-[Arg14,Arg17,Pro21,Pro27,Pro31]-h-amylin (peptide)
peptide: K([γGlu-C20 diacid])CNTATCATQRLARFLRHSSPNFGAIPSSTPVGSNTY-NH2
modifications: disulfide 2-7; N-terminus assumed
SMILES: CC[C@H](C)[C@H](NC(=O)[C@H](C)NC(=O)CNC(=O)[C@H](Cc1ccccc1)NC(=O)[C@H](CC(N)=O)NC(=O)[C@@H]1CCCN1C(=O)[C@H](CO)NC(=O)[C@H](CO)NC(=O)[C@H](Cc1c[nH]cn1)NC(=O)[C@H](CCCNC(=N)N)NC(=O)[C@H](CC(C)C)NC(=O)[C@H](Cc1ccccc1)NC(=O)[C@H](CCCNC(=N)N)NC(=O)[C@H](C)NC(=O)[C@H](CC(C)C)NC(=O)[C@H](CCCNC(=N)N)NC(=O)[C@H](CCC(N)=O)NC(=O)[C@@H](NC(=O)[C@H](C)NC(=O)[C@@H]1CSSC[C@H](NC(=O)[C@@H](N)CCCCNC(=O)CC[C@H](NC(=O)CCCCCCCCCCCCCCCCCCC(=O)O)C(=O)O)C(=O)N[C@@H](CC(N)=O)C(=O)N[C@@H]([C@@H](C)O)C(=O)N[C@@H](C)C(=O)N[C@@H]([C@@H](C)O)C(=O)N1)[C@@H](C)O)C(=O)N1CCC[C@H]1C(=O)N[C@@H](CO)C(=O)N[C@@H](CO)C(=O)N[C@H](C(=O)N1CCC[C@H]1C(=O)N[C@H](C(=O)NCC(=O)N[C@@H](CO)C(=O)N[C@@H](CC(N)=O)C(=O)N[C@H](C(=O)N[C@@H](Cc1ccc(O)cc1)C(N)=O)[C@@H](C)O)C(C)C)[C@@H](C)O
notes: also called compound 63
In the case of B3, the 50% inhibitory concentration (IC50) was 130 nM.

B4: N^ε1-[(4S)-4-carboxy-4-(19-carboxynonadecanoylamino)butanoyl]-[Arg14,Arg17,Pro21,Pro27,Pro34]-h-amylin (peptide)
peptide: K([γGlu-C20 diacid])CNTATCATQRLARFLRHSSPNFGAIPSSTNVGPNTY-NH2
modifications: disulfide 2-7; N-terminus assumed
SMILES: CC[C@H](C)[C@H](NC(=O)[C@H](C)NC(=O)CNC(=O)[C@H](Cc1ccccc1)NC(=O)[C@H](CC(N)=O)NC(=O)[C@@H]1CCCN1C(=O)[C@H](CO)NC(=O)[C@H](CO)NC(=O)[C@H](Cc1c[nH]cn1)NC(=O)[C@H](CCCNC(=N)N)NC(=O)[C@H](CC(C)C)NC(=O)[C@H](Cc1ccccc1)NC(=O)[C@H](CCCNC(=N)N)NC(=O)[C@H](C)NC(=O)[C@H](CC(C)C)NC(=O)[C@H](CCCNC(=N)N)NC(=O)[C@H](CCC(N)=O)NC(=O)[C@@H](NC(=O)[C@H](C)NC(=O)[C@@H]1CSSC[C@H](NC(=O)[C@@H](N)CCCCNC(=O)CC[C@H](NC(=O)CCCCCCCCCCCCCCCCCCC(=O)O)C(=O)O)C(=O)N[C@@H](CC(N)=O)C(=O)N[C@@H]([C@@H](C)O)C(=O)N[C@@H](C)C(=O)N[C@@H]([C@@H](C)O)C(=O)N1)[C@@H](C)O)C(=O)N1CCC[C@H]1C(=O)N[C@@H](CO)C(=O)N[C@@H](CO)C(=O)N[C@H](C(=O)N[C@@H](CC(N)=O)C(=O)N[C@H](C(=O)NCC(=O)N1CCC[C@H]1C(=O)N[C@@H](CC(N)=O)C(=O)N[C@H](C(=O)N[C@@H](Cc1ccc(O)cc1)C(N)=O)[C@@H](C)O)C(C)C)[C@@H](C)O
notes: also called compound 65
Take B4: the IC50 turned out to be 53.5 nM.

B5: N^ε1-[2-[2-[2-[[(4S)-4-carboxy-4-(19-carboxynonadecanoylamino)butanoyl]amino]ethoxy]ethoxy]acetyl]-[Ser14,Arg17,Pro21,Pro27,Pro31]-h-amylin (peptide)
peptide: K([AEEA-γGlu-C20 diacid])CNTATCATQRLASFLRHSSPNFGAIPSSTPVGSNTY-NH2
modifications: disulfide 2-7; N-terminus assumed
SMILES: CC[C@H](C)[C@H](NC(=O)[C@H](C)NC(=O)CNC(=O)[C@H](Cc1ccccc1)NC(=O)[C@H](CC(N)=O)NC(=O)[C@@H]1CCCN1C(=O)[C@H](CO)NC(=O)[C@H](CO)NC(=O)[C@H](Cc1c[nH]cn1)NC(=O)[C@H](CCCNC(=N)N)NC(=O)[C@H](CC(C)C)NC(=O)[C@H](Cc1ccccc1)NC(=O)[C@H](CO)NC(=O)[C@H](C)NC(=O)[C@H](CC(C)C)NC(=O)[C@H](CCCNC(=N)N)NC(=O)[C@H](CCC(N)=O)NC(=O)[C@@H](NC(=O)[C@H](C)NC(=O)[C@@H]1CSSC[C@H](NC(=O)[C@@H](N)CCCCNC(=O)COCCOCCNC(=O)CC[C@H](NC(=O)CCCCCCCCCCCCCCCCCCC(=O)O)C(=O)O)C(=O)N[C@@H](CC(N)=O)C(=O)N[C@@H]([C@@H](C)O)C(=O)N[C@@H](C)C(=O)N[C@@H]([C@@H](C)O)C(=O)N1)[C@@H](C)O)C(=O)N1CCC[C@H]1C(=O)N[C@@H](CO)C(=O)N[C@@H](CO)C(=O)N[C@H](C(=O)N1CCC[C@H]1C(=O)N[C@H](C(=O)NCC(=O)N[C@@H](CO)C(=O)N[C@@H](CC(N)=O)C(=O)N[C@H](C(=O)N[C@@H](Cc1ccc(O)cc1)C(N)=O)[C@@H](C)O)C(C)C)[C@@H](C)O
notes: also called compound 73
As for B5, the 50% inhibitory concentration (IC50) was determined as 5.38 nM.

B6: N^ε1-[2-[2-[2-[[(4S)-4-carboxy-4-(19-carboxynonadecanoylamino)butanoyl]amino]ethoxy]ethoxy]acetyl]-[Lys14,Arg17,Pro21,Pro27,Pro31]-h-amylin (peptide)
peptide: K([AEEA-γGlu-C20 diacid])CNTATCATQRLAKFLRHSSPNFGAIPSSTPVGSNTY-NH2
modifications: disulfide 2-7; N-terminus assumed
SMILES: CC[C@H](C)[C@H](NC(=O)[C@H](C)NC(=O)CNC(=O)[C@H](Cc1ccccc1)NC(=O)[C@H](CC(N)=O)NC(=O)[C@@H]1CCCN1C(=O)[C@H](CO)NC(=O)[C@H](CO)NC(=O)[C@H](Cc1c[nH]cn1)NC(=O)[C@H](CCCNC(=N)N)NC(=O)[C@H](CC(C)C)NC(=O)[C@H](Cc1ccccc1)NC(=O)[C@H](CCCCN)NC(=O)[C@H](C)NC(=O)[C@H](CC(C)C)NC(=O)[C@H](CCCNC(=N)N)NC(=O)[C@H](CCC(N)=O)NC(=O)[C@@H](NC(=O)[C@H](C)NC(=O)[C@@H]1CSSC[C@H](NC(=O)[C@@H](N)CCCCNC(=O)COCCOCCNC(=O)CC[C@H](NC(=O)CCCCCCCCCCCCCCCCCCC(=O)O)C(=O)O)C(=O)N[C@@H](CC(N)=O)C(=O)N[C@@H]([C@@H](C)O)C(=O)N[C@@H](C)C(=O)N[C@@H]([C@@H](C)O)C(=O)N1)[C@@H](C)O)C(=O)N1CCC[C@H]1C(=O)N[C@@H](CO)C(=O)N[C@@H](CO)C(=O)N[C@H](C(=O)N1CCC[C@H]1C(=O)N[C@H](C(=O)NCC(=O)N[C@@H](CO)C(=O)N[C@@H](CC(N)=O)C(=O)N[C@H](C(=O)N[C@@H](Cc1ccc(O)cc1)C(N)=O)[C@@H](C)O)C(C)C)[C@@H](C)O
notes: also called compound 74
As to B6, the IC50 stood at 79.9 nM.
